Residue numbers refer to the chain shown, from its start. In names and notes the source's numbering stands.
T1: human BBS2 L349W, c-Myc-tagged (human, UniProt Q9BXC9 1-721, L349W)
T1 sequence (looked up): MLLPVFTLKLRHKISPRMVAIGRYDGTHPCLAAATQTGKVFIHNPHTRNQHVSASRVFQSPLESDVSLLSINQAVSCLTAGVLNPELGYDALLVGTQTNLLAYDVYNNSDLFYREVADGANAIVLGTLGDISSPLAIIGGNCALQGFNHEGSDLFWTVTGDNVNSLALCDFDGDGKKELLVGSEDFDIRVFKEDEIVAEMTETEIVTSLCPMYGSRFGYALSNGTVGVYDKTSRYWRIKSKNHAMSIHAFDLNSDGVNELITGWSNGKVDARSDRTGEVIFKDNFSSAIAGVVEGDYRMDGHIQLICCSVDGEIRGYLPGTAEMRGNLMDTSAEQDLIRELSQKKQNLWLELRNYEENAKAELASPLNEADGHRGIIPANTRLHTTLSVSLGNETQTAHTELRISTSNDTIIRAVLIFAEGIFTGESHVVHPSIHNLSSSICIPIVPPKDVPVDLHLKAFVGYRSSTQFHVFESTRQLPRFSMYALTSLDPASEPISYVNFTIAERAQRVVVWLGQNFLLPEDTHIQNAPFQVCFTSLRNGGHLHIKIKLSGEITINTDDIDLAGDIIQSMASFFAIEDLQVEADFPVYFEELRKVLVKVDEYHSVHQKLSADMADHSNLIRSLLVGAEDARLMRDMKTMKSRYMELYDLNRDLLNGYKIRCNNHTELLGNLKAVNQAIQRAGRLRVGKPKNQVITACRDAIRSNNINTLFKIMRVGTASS

T2: human BBS2 R632P, c-Myc-tagged (human, UniProt Q9BXC9 1-721, R632P)
T2 sequence (looked up): T1 sequence (looked up) with W349L, R632P

B1: human BBS7 (Bardet-Biedl syndrome protein 7), wild type, Flag-Strep-tagged (natural protein, UniProt Q8IWZ6 1-715, looked up)
chain: MDLILNRMDYLQVGVTSQKTMKLIPASRHRATQKVVIGDHDGVVMCFGMKKGEAAAVFKTLPGPKIARLELGGVINTPQEKIFIAAASEIRGFTKRGKQFLSFETNLTESIKAMHISGSDLFLSASYIYNHYCDCKDQHYYLSGDKINDVICLPVERLSRITPVLACQDRVLRVLQGSDVMYAVEVPGPPTVLALHNGNGGDSGEDLLFGTSDGKLALIQITTSKPVRKWEIQNEKKRGGILCIDSFDIVGDGVKDLLVGRDDGMVEVYSFDNANEPVLRFDQMLSESVTSIQGGCVGKDSYDEIVVSTYSGWVTGLTTEPIHKESGPGEELKINQEMQNKISSLRNELEHLQYKVLQERENYQQSSQSSKAKSAVPSFGINDKFTLNKDDASYSLILEVQTAIDNVLIQSDVPIDLLDVDKNSAVVSFSSCDSESNDNFLLATYRCQADTTRLELKIRSIEGQYGTLQAYVTPRIQPKTCQVRQYHIKPLSLHQRTHFIDHDRPMNTLTLTGQFSFAEVHSWVVFCLPEVPEKPPAGECVTFYFQNTFLDTQLESTYRKGEGVFKSDNISTISILKDVLSKEATKRKINLNISYEINEVSVKHTLKLIHPKLEYQLLLAKKVQLIDALKELQIHEGNTNFLIPEYHCILEEADHLQEEYKKQPAHLERLYGMITDLFIDKFKFKGTNVKTKVPLLLEILDSYDQNALISFFDAA
B2: human BBS9 (Bardet-Biedl syndrome protein 9), wild type, Flag-tagged (natural protein, UniProt Q3SYG4 1-887, looked up)
chain: MSLFKARDWWSTILGDKEEFDQGCLCLANVDNSGNGQDKIIVGSFMGYLRIFSPHPAKTGDGAQAEDLLLEVDLRDPVLQVEVGKFVSGTEMLHLAVLHSRKLCVYSVSGTLGNVEHGNQCQMKLMYEHNLQRTACNMTYGSFGGVKGRDLICIQSMDGMLMVFEQESYAFGRFLPGFLLPGPLAYSSRTDSFLTVSSCQQVESYKYQVLAFATDADKRQETEQQKLGSGKRLVVDWTLNIGEQALDICIVSFNQSASSVFVLGERNFFCLKDNGQIRFMKKLDWSPSCFLPYCSVSEGTINTLIGNHNNMLHIYQDVTLKWATQLPHIPVAVRVGCLHDLKGVIVTLSDDGHLQCSYLGTDPSLFQAPNVQSRELNYDELDVEMKELQKIIKDVNKSQGVWPMTEREDDLNVSVVVSPNFDSVSQATDVEVGTDLVPSVTVKVTLQNRVILQKAKLSVYVQPPLELTCDQFTFEFMTPDLTRTVSFSVYLKRSYTPSELEGNAVVSYSRPTDRNPDGIPRVIQCKFRLPLKLICLPGQPSKTASHKITIDTNKSPVSLLSLFPGFASQSDDDQVNVMGFHFLGGARITVLASKTSQRYRIQSEQFEDLWLITNELILRLQEYFEKQGVKDFACSFSGSIPLQEYFELIDHHFELRINGEKLEELLSERAVQFRAIQRRLLARFKDKTPAPLQHLDTLLDGTYKQVIALADAVEENQGNLFQSFTRLKSATHLVILLIALWQKLSADQVAILEAAFLPLQEDTQELGWEETVDAAISHLLKTCLSKSSKEQALNLNSQLNIPKDTSQLKKHITLLCDRLSKGGRLCLSTDAAAPQTMVMPGGCTTIPESDLEERSVEQDSTELFTNHRHLTAETPRPEVSPLQGVSE
B3: human BBS2 (Bardet-Biedl syndrome protein 2), wild type, HPC4- and c-Myc-tagged (natural protein, UniProt Q9BXC9 1-721, looked up)
chain: T1 sequence (looked up) with W349L
B4: human BBS9 G141R, Flag-tagged (natural protein, UniProt Q3SYG4 1-887, looked up)
chain: B2 chain with G141R

Experiments:
[1] = target: B3; test: pull-down
[2] = target: T1, human BBS2 L349W, c-Myc-tagged; test: co-IP
[3] = target: T2, human BBS2 R632P, c-Myc-tagged; test: co-IP
[4] = target: B2; test: negative-stain EM reconstruction + cross-linking
[5] = target: B3; test: co-IP

Binder: B1
binding result [1]: binds
decrease in binding relative to WT [2]: 30%

Binder: B2
reduction in binding relative to WT [3]: 70%

Binder: B3
binding result [4]: binds

Binder: B4
reduction in binding relative to WT [5]: 70%

Reference: publication doi:10.1101/699223 (bioRxiv, 2019)
